Measurements: article PMC8816746, “Genetic tools for the redirection of the central carbon flow towards the production of lactate in the human gut bacterium Phocaeicola (Bacteroides) vulgatus” (Applied Microbiology and Biotechnology, 2022)

Substrate: CC(=O)C(=O)O
Assay: purified protein
Format: biochemical, Phocaeicola vulgatus
Conditions: 250 μM NADH, 100 mM K-phosphate pH 7, 37 °C

B1: D-LDH (BVU_2499) (Phocaeicola vulgatus ATCC 8482) (protein)
chain: AYKIAFYDTKPYDERSFTEANEKFGFDIRYYKGHLNMNNVVLTKGVDVVCIFVNDTADAEVIRAMADNGVKLLALRCAGYNNVDLAATAGKMKVVRVPAYSPYAVAEFTVALMLSLNRKIPRATMRTRDGNFSLHGLMGFDMHGKTAGIIGTGKIAKILIQILRGFGMNVLAYDLYPDYNFAREHQVVYCTLDELYHSSDIISLHCPLTEQTKYLINDYSISKMKDGVMIINTGRGQLIHTNALIEGLKTKKVGYAGLDVYEEEEPYFYEDKSDKIIDDDTLARLLSFNNVIVTSHQAFFTKEAMTNIAHTTLQNVKDFAESRSLVNEVAVGRV
notes: full-length ldh in pASK-IBA5, N-terminal Strep-tag kept (no cleavage told), E. coli DH5alpha, Strep-Tactin purified
For B1, the Km was 1.4 ± 0.1 mM.
